B1: Chromodomain-helicase-DNA-binding protein 4, residues 623 to 675; numbered along this chain, Q14839 (parent)
chain: MIHRILNHSVDKKGHVHYLIKWRDLPYDQASWESEDVEIQDYDLFKQSYWNHR

± gives the uncertainty stated by the source.

Variants of B1 are the subject of the data set. Kind of data set: abundance fitness (aPCA) (normalised: wild type 0, dead -1); higher = more abundant; growth selection in yeast, the domain comes from the species named. The conditions noted are these: Homo sapiens.
For Q40D, the abundance fitness is -0.047 ± 0.11.
Regarding Q40H, the abundance fitness is -0.122 ± 0.11.
For the variant Q40R, the abundance fitness is -0.161 ± 0.083.
For the variant Q40F, the abundance fitness was -0.548 ± 0.2.
To Q40C belongs -0.043 ± 0.14; to Q40S, -0.286 ± 0.091; to Q40P, -0.061 ± 0.11.
As for Q40T, the abundance fitness is -0.036 ± 0.094.
Take Q40E: the abundance fitness is -0.061 ± 0.13.
In the case of Q40K, the abundance fitness was 0.041 ± 0.088.
Regarding Q40L, the abundance fitness was -0.271 ± 0.092.
As to Q40W, the abundance fitness is -0.549 ± 0.13.
The figure for Q40A is -0.052 ± 0.086; for Q40Y it is -0.504 ± 0.13.
To Q40I belongs -0.252 ± 0.14.
On to D28L, for which the abundance fitness is -0.55 ± 0.1.
D28W: the abundance fitness is -0.333 ± 0.18.
Turning to D28Q, the abundance fitness was -0.354 ± 0.14.
As to D28I, the abundance fitness was -0.664 ± 0.16.
Regarding D28T, the abundance fitness is -0.098 ± 0.12.
With D28M, the abundance fitness is -0.685 ± 0.15.
As for D28G, the abundance fitness was -0.179 ± 0.097.
The figure for D28Y is -0.504 ± 0.14; for D28F it is -0.553 ± 0.13.
Turning to D28C, the abundance fitness was -0.025 ± 0.14.
To D28H belongs -0.139 ± 0.15; to D28A, 0.116 ± 0.089.
To D28R belongs -0.169 ± 0.096; to D28N, -0.028 ± 0.11.
In the case of D28K, the abundance fitness is -0.124 ± 0.12.
The figure for D28V is -0.462 ± 0.09.
The figure for V37T is -0.001 ± 0.083; for V37C it is 0.117 ± 0.1; for V37D it is -0.262 ± 0.1.
Regarding V37R, the abundance fitness is 0.212 ± 0.089.
For V37P, the abundance fitness is -0.746 ± 0.11.
Take V37E: the abundance fitness was -0.039 ± 0.16.
Take V37W: the abundance fitness was -0.985 ± 0.21.
In the case of V37M, the abundance fitness is 0.171 ± 0.11.
As to V37A, the abundance fitness was determined as 0.109 ± 0.077.
Consider V37Q, for which the abundance fitness worked out at 0.052 ± 0.14.
Regarding V37L, the abundance fitness was -0.058 ± 0.075.
V37K: the abundance fitness was determined as 0.182 ± 0.14.
V37H: the abundance fitness was -0.126 ± 0.087.
Take V37Y: the abundance fitness was -0.361 ± 0.1.
As to V37I, the abundance fitness was -0.217 ± 0.089.
As for V37G, the abundance fitness is -0.246 ± 0.095.
Consider V37F, for which the abundance fitness was -0.166 ± 0.097.
Turning to V37N, the abundance fitness is 0.155 ± 0.088.
On to D36G, for which the abundance fitness was -0.299 ± 0.1.
Regarding D36N, the abundance fitness is 0.134 ± 0.11.
The figure for D36P is -0.909 ± 0.18.
Consider D36V, for which the abundance fitness is -0.833 ± 0.14.
Turning to D36F, the abundance fitness is -0.267 ± 0.15.
Regarding D36E, the abundance fitness is -0.102 ± 0.13.
The figure for D36Q is -0.415 ± 0.14.
Turning to D36K, the abundance fitness is -0.073 ± 0.12.
The figure for D36W is -0.37 ± 0.11.
For D36H, the abundance fitness is -0.105 ± 0.11.
Take D36R: the abundance fitness was -0.255 ± 0.084.
As for D36C, the abundance fitness is -0.363 ± 0.13.
On to D36A, for which the abundance fitness is -0.455 ± 0.11.
In the case of D36T, the abundance fitness is -0.2 ± 0.11.
Consider D36L, for which the abundance fitness was -0.402 ± 0.086.
On to D36I, for which the abundance fitness is -0.915 ± 0.18.
With D36M, the abundance fitness is -0.372 ± 0.12.
For the variant D36S, the abundance fitness was -0.079 ± 0.085.
Turning to P26R, the abundance fitness is -0.533 ± 0.094.
With P26C, the abundance fitness was -0.701 ± 0.22.
For P26N, the abundance fitness is -0.201 ± 0.15.
As to P26E, the abundance fitness is -0.562 ± 0.14.
Turning to P26A, the abundance fitness is -0.751 ± 0.17.
The figure for P26K is -0.59 ± 0.14; for P26V it is -0.762 ± 0.14.
In the case of P26G, the abundance fitness was -0.019 ± 0.099.
For P26T, the abundance fitness is -0.392 ± 0.15.
To P26F belongs -0.749 ± 0.48; to P26H, -0.274 ± 0.25.
Turning to P26L, the abundance fitness was -0.62 ± 0.11.
The figure for P26S is -0.19 ± 0.1.
Turning to P26W, the abundance fitness was -0.662 ± 0.15.
The figure for P26I is -0.907 ± 0.27; for P26M it is -0.761 ± 0.19.
As to P26Q, the abundance fitness was -0.602 ± 0.19.
With P26D, the abundance fitness was -0.163 ± 0.17.
With P26Y, the abundance fitness was -0.339 ± 0.22.
For the variant S34E, the abundance fitness was -0.004 ± 0.12.
With S34R, the abundance fitness is -0.081 ± 0.076.
For the variant S34G, the abundance fitness was -0.106 ± 0.085.
Turning to S34I, the abundance fitness was -0.852 ± 0.23.
On to S34Q, for which the abundance fitness was -0.111 ± 0.12.
Regarding S34T, the abundance fitness is -0.377 ± 0.11.
Regarding S34Y, the abundance fitness was -0.731 ± 0.15.
Take S34P: the abundance fitness is -0.022 ± 0.1.
S34H: the abundance fitness was 0.136 ± 0.14.
Regarding S34K, the abundance fitness amounted to 0.086 ± 0.14.
The figure for S34N is -0.137 ± 0.18; for S34M it is -0.441 ± 0.14.
Turning to S34L, the abundance fitness is -0.411 ± 0.089.
For S34A, the abundance fitness is -0.103 ± 0.1.
Regarding S34C, the abundance fitness stood at 0.155 ± 0.1.
As for S34F, the abundance fitness is -0.618 ± 0.12.
The figure for D43Q is -0.047 ± 0.11; for D43G it is -0.147 ± 0.092; for D43C it is -0.236 ± 0.16.
As to D43F, the abundance fitness is -0.394 ± 0.16.
To D43H belongs -0.186 ± 0.13; to D43L, -0.423 ± 0.084.
The figure for D43S is -0.307 ± 0.088.
Regarding D43I, the abundance fitness is -0.862 ± 0.25.
To D43A belongs -0.205 ± 0.081.
On to D43K, for which the abundance fitness was -0.456 ± 0.14.
To D43E belongs 0.099 ± 0.1; to D43R, -0.577 ± 0.1; to D43M, -0.262 ± 0.13.
Take D43N: the abundance fitness was -0.161 ± 0.12.
With D24F, the abundance fitness is -0.423 ± 0.14.
The figure for D24Y is -0.53 ± 0.12.
The figure for D24S is -0.294 ± 0.09.
In the case of D24W, the abundance fitness was -0.353 ± 0.13.
For the variant D24K, the abundance fitness is -0.461 ± 0.14.
The figure for D24E is -0.014 ± 0.097.
Regarding D24I, the abundance fitness is -0.725 ± 0.16.
With D24H, the abundance fitness was -0.142 ± 0.16.
On to D24T, for which the abundance fitness is -0.309 ± 0.1.
The figure for D24C is -0.588 ± 0.13; for D24G it is -0.115 ± 0.086.
For the variant D24N, the abundance fitness was -0.077 ± 0.1.
In the case of D24Q, the abundance fitness is -0.439 ± 0.14.
Take D24A: the abundance fitness was -0.335 ± 0.12.
The figure for D24R is -0.487 ± 0.094; for D24V it is -0.558 ± 0.1; for D24M it is -0.552 ± 0.13.
On to D24L, for which the abundance fitness was -0.535 ± 0.095.
Turning to A30S, the abundance fitness is -0.325 ± 0.16.
For the variant A30F, the abundance fitness was -0.586 ± 0.24.
With A30R, the abundance fitness is -0.401 ± 0.16.
With A30I, the abundance fitness came out at 0.111 ± 0.27.
A30W: the abundance fitness is -0.465 ± 0.31.
For the variant A30H, the abundance fitness was -0.645 ± 0.28.
The figure for A30N is -0.347 ± 0.25; for A30Q it is -0.866 ± 0.31.
A30P: the abundance fitness is -0.356 ± 0.15.
The figure for A30V is -0.541 ± 0.28; for A30T it is -0.653 ± 0.19; for A30L it is -0.813 ± 0.2.
Regarding A30G, the abundance fitness was -0.977 ± 0.44.
As for A30E, the abundance fitness was -0.717 ± 0.41.
In the case of A30C, the abundance fitness was -0.136 ± 0.29.
In the case of E35Y, the abundance fitness was -0.757 ± 0.15.
Consider E35A, for which the abundance fitness is -0.141 ± 0.11.
For the variant E35R, the abundance fitness is -0.882 ± 0.1.
To E35F belongs -0.934 ± 0.21.
For the variant E35G, the abundance fitness is -0.22 ± 0.1.
For E35M, the abundance fitness was -0.874 ± 0.15.
Regarding E35Q, the abundance fitness is -0.391 ± 0.12.
Regarding E35C, the abundance fitness was -0.717 ± 0.16.
With E35D, the abundance fitness is -0.332 ± 0.18.
To E35V belongs -0.809 ± 0.12.
As to E35H, the abundance fitness was -0.769 ± 0.24.
In the case of E35S, the abundance fitness was -0.131 ± 0.089.
To E35L belongs -0.833 ± 0.1; to E35K, -0.844 ± 0.17; to E35T, -0.45 ± 0.12.
Take E35W: the abundance fitness is -0.684 ± 0.15.
As for E35I, the abundance fitness was -0.765 ± 0.21.
Turning to E35P, the abundance fitness is -0.874 ± 0.18.

Values taken from the Human Domainome abundance scans (Beltran et al. 2025).
